Experimental data reported in the Human Domainome abundance scans (Beltran et al. 2025).

B1: Cold shock protein CspB, residues 1 to 66; numbered along this chain, P41016 (parent)
chain: MQRGKVKWFNNEKGYGFIEVEGGSDVFVHFTAIQGEGFKTLEEGQEVSFEIVQGNRGPQAANVVKL

Variants of: B1
Experiment: abundance fitness (aPCA) (normalised: wild type 0, dead -1); higher = more abundant; growth selection in yeast, the domain comes from the species named
Settings: Bacillus caldolyticus

Abundance fitness, by site and new letter:
P58: S -0.026, C -0.083, W -0.016
V47: I 0.065, A -0.215, Q -0.935, M -0.702, G -0.623, S -0.866, L -0.332
L41: Y -0.368, G -0.355, M -0.01, T -0.299, I 0.003, F -0.199, P -0.46, V -0.042, R -0.625, H -0.616, N -0.515, S -0.433, E -0.482, W -0.359, K -0.721
I51: L -0.003, C 0.031, N -0.071, T -0.033, F -0.082, P -0.023, A -0.038, K -0.026, Q 0.007, Y 0.037, V 0.009, R -0.004, H -0.019, E -0.026, G -0.079, W -0.041, M 0.023
A61: D -0.024, E -0.051, M 0.022, L -0.067, K 0.02, C -0.03, F -0.06, I 0.01, H -0.004
E50: H -0.07, L -0.016, G -0.032, P -0.964, F -0.029, M -0.017, R -0.002, S -0.029, K -0.008, C -0.007, I -0.049, Y 0.005, D 0.016, W -0.013, T 0.01, V -0.018, Q 0
V52: W -0.053, H -0.033, N -0.02, I -0.018, G -0.029, F -0.029, R 0.009, D -0.092, P -0.514, T 0.012, S -0.018, A 0.029, M 0.038, Q -0.001, E -0.004, Y -0.043, C -0.014
R56: T -0.142, D -0.175, H -0.069, G -0.081, M -0.068, C -0.097, V -0.1, F -0.181, I -0.143, S -0.088, A -0.069, E -0.066, N 0.018, W -0.207, P -0.062, K 0.003, Y -0.131, Q -0.044
N55: V 0.005, E -0.043, F 0.046, K 0.018, W 0.002, Q -0.042, D -0.309, I 0.059, T -0.256, A -0.035, L -0.035, P -0.026, C -0.089, G -0.064, R -0.075, S 0.049
G44: T -0.093, W -0.111, I -0.567, V -0.344, S -0.029, M -0.043, A -0.049, R -0.013, E -0.05, L -0.076, P -0.311, H 0.014, C 0.005, K -0.041, Y -0.066, D 0.019, N -0.086, F -0.126
S48: N -0.099, L -0.035, Q -0.007, T 0.002, H -0.023, D 0.004, E 0.027, C -0.047, F -0.008, I -0.028, G -0.005, P -0.847, V -0.059, Y 0.022, M 0.026, W -0.074, A 0.003
A60: T -0.487, N -1.08, V -0.254, M -0.752, E -0.812, L -0.636, F -0.79, G -0.171, Q -0.717, H -0.771, W -1, C -0.115, S -0.14
